Tests used:
Experiment in all cases: cell_activity
[1] = tested on: TlpA39 (Salmonella typhimurium); conditions: thermal derepression of GFP in E. coli, 31.4 to 44.6 C
[2] = tested on: TlpA36 (Salmonella typhimurium); conditions: thermal derepression of GFP in E. coli, 31.4 to 44.6 C
[3] = tested on: TlpA (Salmonella typhimurium); conditions: thermal derepression of GFP in E. coli, 31.4 to 44.6 C
[4] = biological target: TcI38 (bacteriophage lambda) (UniProt P03034); conditions: thermal derepression of GFP in E. coli, 32.4 to 40 C
[5] = biological target: TcI (cI857, A67T) (bacteriophage lambda) (UniProt P03034); conditions: thermal derepression of GFP in E. coli, 34.2 to 40 C; text gives >1,432
[6] = biological target: TcI42 (bacteriophage lambda) (UniProt P03034); conditions: thermal derepression of GFP in E. coli, 32.4 to 45.7 C

TlpA operator/promoter, 52 bp gave an activity [1] of 1520 fold, an activity [2] of 370 fold and an activity [3] of 355 fold.
Work on tandem pR/pL operator/promoter yielded an activity [4] of 1030 fold, an activity [5] of 1430 fold and an activity [6] of 1690 fold.
